Laboratory results reported in publication PMC2987765.

Target: Flag-tagged full length Ack1 (human) (UniProt Q07912)
Assay: co-IP; Cos7 cells transfected with FLAG-Ack1 alone or with HA-NKD or HA-KD; RIPA lysates (450-750 ug) incubated overnight at 4°C with FLAG M2 affinity gel, washed 5 times with RIPA buffer; blots with anti-HA and anti-FLAG; densitometry ratio HA-Ack1/Flag-Ack1

HA-tagged Ack1 NKD (amino terminus plus kinase domain) (from UniProt Q07912 1-385) (domain or fragment)
fold co-immunoprecipitation against HA-KD: 3 fold
